B1: SEQ ID NO:1 (protein, listed as Pseudomonas fluorescens)
chain: MADLYENPMGLMGFEFIEFASPTPGTLEPIFEIMGFTKVATHRSKNVHLYRQGEINLILNNEPNSIASYFAAEHGPSVCGMAFRVKDSQKAYNRALELGAQPIHIDTGPMELNLPAIKGIGGAPLYLIDRFGEGSSIYDIDFVYLEGVERNPVGAGLKVIDHLTHNVYRGRMVYWANFYEKLFNFREARYFDIKGEYTGLTSKAMSAPDGMIRIPLNEESSKGAGQIEEFLMQFNGEGIQHVAFLTDDLVKTWDALKKIGMRFMTAPPDTYYEMLEGRLPDHGEPVDQLQARGILLDGSSVEGDKRLLLQIFSETLMGPVFFEFIQRKGDDGFGEGNFKALFESIERDQVRRGVLTAD
modifications: 4-hydroxyphenylpyruvate dioxygenase (HPPD; Pseudomonas fluorescens) (1)..(358)
B2: SEQ ID NO:104 (protein)
chain: MADLYENPMGLMGFEFIEFASPTPGTLEPIFEIMGFTKVATHRSKNVHLYRQGEINLILNNEPNSIASYFAAEHGPSVCGMAFRVKDSQKAYNRALELGAQPIHIDTGPMELNLPAIKGIGGAPLYLIDRFGEGSSIYDIDFVYLEGVERNPVGAGLKVIDHLTHNVYRGRMVYWANFYEKLFNFREARYFDIKGEYTGLTSKAMSAPDGMIKIPLNEESSKGAGQIEEFLMQFNGEGIQHVAFLTDDLVKTWDALKKIGMRFLTAPGDEYYEMLEGRLPDHGEPVDQLQARGILLDGSSVEGDKRLLLQIFSETLMGPVFFEFIQRKGDDGFGPHSFKVLFEQMERDQVRRGVLTAD
modifications: mutant HPPD polypeptide
B3: 83 (protein)
chain: MADLYENPMGLMGFEFIEFASPTPGTLEPIFEIMGFTKVATHRSKNVHLYRQGEINLILNNEPNSIASYFAAEHGPSVCGMAFRVKDSQKAYNRALELGAQPIHIDTGPMELNLPAIKGIGGAPLYLIDRFGEGSSIYDIDFVYLEGVERNPVGAGLKVIDHLTHNVYRGRMVYWANFYEKLFNFREARYFDIKGEYTGLTSKAMSAPDGMIRIPLNEESSKGAGQIEEFLMQFNGEGIQHVAFLTDDLVKTWDALKKIGMRFMTAPGDEYYEMLEGRLPDHGEPVDQLQARGILLDGSSVEGDKRLLLQIFSETLMGPVFFEFIQRKGDDGFGPDSFKGLFESVERDQVRRGVLTAD
modifications: mutant HPPD polypeptide
B4: 32 (protein)
chain: MADLYENPMGLMGFEFIEFASPTPGTLEPIFEIMGFTKVATHRSKNVHLYRQGEINLILNNEPNSIASYFAAEHGPSVCGMAFRVKDSQKAYNRALELGAQPIHIDTGPMELNLPAIKGIGGAPLYLIDRFGEGSSIYDIDFVYLEGVERNPVGAGLKVIDHLTHNVYRGRMVYWANFYEKLFNFREARYFDIKGEYTGLTSKAMSAPDGMIRIPLNEESSKGAGQIEEFLMQFNGEGIQHVAFLTDDLVKTWDALKKIGMRFMTAPRDEYYEMLEGRLPDHGEPVDQLQARGILLDGSSVEGDKRLLLQIFSETLMGPVFFEFIQRKGDDGFGPHSFKVLFESVERDQVRRGVLTAD
modifications: mutant HPPD polypeptide
B5: SEQ ID NO: 104: mutant HPPD polypeptide: R213K M264L P268G T270E E335P G336H N337S A340V S344Q I345M (protein)
chain: MADLYENPMGLMGFEFIEFASPTPGTLEPIFEIMGFTKVATHRSKNVHLYRQGEINLILNNEPNSIASYFAAEHGPSVCGMAFRVKDSQKAYNRALELGAQPIHIDTGPMELNLPAIKGIGGAPLYLIDRFGEGSSIYDIDFVYLEGVERNPVGAGLKVIDHLTHNVYRGRMVYWANFYEKLFNFREARYFDIKGEYTGLTSKAMSAPDGMIKIPLNEESSKGAGQIEEFLMQFNGEGIQHVAFLTDDLVKTWDALKKIGMRFLTAPGDEYYEMLEGRLPDHGEPVDQLQARGILLDGSSVEGDKRLLLQIFSETLMGPVFFEFIQRKGDDGFGPHSFKVLFEQMERDQVRRGVLTAD
modifications: mutant HPPD polypeptide
notes: mutant HPPD polypeptide: R213K M264L P268G T270E E335P G336H N337S A340V S344Q I345M
B6: 96 (protein)
chain: MADLYENPMGLMGFEFIEFASPTPGTLEPIFEIMGFTKVATHRSKNVHLYRQGEINLILNNEPNSIASYFAAEHGPSVCGMAFRVKDSQKAYNRALELGAQPIHIDTGPMELNLPAIKGIGGAPLYLIDRFGEGSSIYDIDFVYLEGVERNPVGAGLKVIDHLTHNVYRGRMVYWANFYEKLFNFREARYFDIKGEYTGLTSKAMSAPDGMIKIPLNEESSKGAGQIEEFLMQFNGEGIQHVAFLTDDLVKTWDALKKIGMRFMTAPGDEYYEMLEGRLPDHGEPVDQLQARGILLDGSSVEGDKRLLLQIFSETLMGPVFFEFIQRKGDDGFGPHSFKVLFESVERDQVRRGVLTAD
modifications: mutant HPPD polypeptide
B7: SEQ ID NO: 1: reference wild-type Pseudomonas fluorescens HPPD polypeptide (protein, listed as Pseudomonas fluorescens)
chain: MADLYENPMGLMGFEFIEFASPTPGTLEPIFEIMGFTKVATHRSKNVHLYRQGEINLILNNEPNSIASYFAAEHGPSVCGMAFRVKDSQKAYNRALELGAQPIHIDTGPMELNLPAIKGIGGAPLYLIDRFGEGSSIYDIDFVYLEGVERNPVGAGLKVIDHLTHNVYRGRMVYWANFYEKLFNFREARYFDIKGEYTGLTSKAMSAPDGMIRIPLNEESSKGAGQIEEFLMQFNGEGIQHVAFLTDDLVKTWDALKKIGMRFMTAPPDTYYEMLEGRLPDHGEPVDQLQARGILLDGSSVEGDKRLLLQIFSETLMGPVFFEFIQRKGDDGFGEGNFKALFESIERDQVRRGVLTAD
modifications: 4-hydroxyphenylpyruvate dioxygenase (HPPD; Pseudomonas fluorescens) (1)..(358)
B8: SEQ ID NO: 103 (protein)
chain: MADLYENPMGLMGFEFIEFASPTPGTLEPIFEIMGFTKVATHRSKNVHLYRQGEINLILNNEPNSIASYFAAEHGPSVCGMAFRVKDSQKAYNRALELGAQPIHIDTGPMELNLPAIKGIGGAPLYLIDRFGEGSSIYDIDFVYLEGVERNPVGAGLKVIDHLTHNVYRGRMVYWANFYEKLFNFREARYFDIKGEYTGLTSKAMSAPDGMIKIPLNEESSKGAGQIEEFLMQFNGEGIQHVAFLTDDLVKTWDALKKIGMRFLTAPGDEYYEMLEGRLPDHGEPVDQLQARGILLDGSSVEGDKRLLLQIFSERLMGPVFFEFIQRKGDDGFGPHSFKVLFEQMERDQVRRGVLTAD
modifications: mutant HPPD polypeptide

Columns and labels:
[1] = system: HPPD polypeptides (wild-type SEQ ID NO:1 and mutants)
[2] = system: E. coli cells expressing an HPPD polypeptide; experiment: Brown Color Assay on solid LB-agar, visual score of brown pigment; type: cell-based; parameters: key to brown pigment formation: +++: a dark brown coloring as seen for E. coli cells expressing one of the respective mutant HPPD polypeptide without inhibitor; ++: medium brown pigmentation; +: light brown pigmentation; 0: no brown pigmentation development was detected on the LB agar plates; details: for brown coloring compared with SEQ ID NO: 2, in words: 25, 50, 100, 250 and 500 μM Cmpd. 1
Procedure: Mutant HPPD polypeptides were analyzed using a brown color assay (WO2014/043435). Bacterial cells expressing the mutant HPPD polypeptide according to the invention were assayed in 96 well format for HPPD inhibitor tolerance by spotting on solid media containing LB-agar, selection agent for the expression vector pSE420(RI)NX (WO2014/043435), 5 mM tyrosine (Sigma-Aldrich, St. Louis, USA), 42 mM succinate (Sigma-Aldrich, St. Louis, USA) and six different concentrations of the HPPD inhibitor herbicide Cmpd. 1 (0-500 μM). In the brown color assay, an overnight culture of the E. coli cells expressing one of the respective mutant HPPD polypeptides were diluted to an OD600 of 1 and 10 μl extract was spotted in triplicates on plates containing 0, 25, 50, 100, 250, or 500 μM of Cmpd. 1. Plates were covered with airpore tape and incubated at 30 degrees C. After 24 hours, the cells were kept in darkness at room temperature and after 7 days the brown pigment formation was scored visually. In the presence of an HPPD inhibitor herbicide, this pigment formation is inhibited and the color of the agar plate will not alter, unless an HPPD inhibitor herbicide tolerant HPPD polypeptide is expressed and active. […] The “++” and “+” scores a medium and light brown pigmentation, respectively, and the “0” means that no brown pigmentation development was detected on the LB agar plates.

[3] = system: E. coli cells expressing an HPPD polypeptide; experiment: Brown color bioassay in liquid culture, residual brown color formation (BCF), OD440 after 96 hours; type: cell-based
Outline: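 E. coli expressing HPPD variants were grown at 30 degrees Celsius from OD600 0.3-0.5 in LB with 5 mM HPP, with or without herbicide (e.g. Cmpd. 1, 1000 μM). After 96 hours, supernatant OD440 was measured; residual brown colour formation compares pigment with and without inhibitor.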

[4] = system: transgenic soybean T0 events; experiment: Additional greenhouse trials of T0 soybean events, leaf damage score 0-100 as percentiles; type: in vivo; details: Cmpd. 1 300 g AI/ha, five days
Description: In additional greenhouse trials, 21 to 94 independent T0 soybean events per construct containing an exemplary mutant HPPD polypeptide were sprayed with the HPPD inhibitor herbicide Cmpd. […] Five days after the application, the leaf damaged area due to the HPPD inhibitor herbicide is scored in a scale from 0 (no damage) to 100 (complete bleaching). Under those conditions, the wild-type plants were completely bleached and their damage scores were in the 95-100 range.
Table 9 presents the distribution of the HPPD inhibitor herbicide damage score data as percentile for exemplary mutant HPPD inhibitor herbicide tolerant polypeptides (SEQ ID NOs). The percentiles normalize ranks of the damage score from an individual plant in a population. […] The median is the 50th percentile. Half the values had higher damage scores; half had lower damage scores. […] The difference between the 75th and 25th percentile is called the interquartile range and a marker to quantify scattering in the population. All constructs had only one single cassette insertion in the soybean genome.
In Table 9, the constructs were ranked based on injury scores according to the 75th percentile, from smallest to highest score. All exemplary HPPD polypeptide variants are better in all percentile analyses than the prior art mutant HPPD polypeptide (WO2014/043435) corresponding to SEQ ID NO:2 in this invention. The scoring of the prior art mutant HPPD polypeptide (WO2014/043435) corresponding to SEQ ID NO:2 in this invention is listed in the bottom row of Table 9.

[5] = 25 μM Cmpd. 1, scored after 7 days
[6] = 50 μM Cmpd. 1, scored after 7 days
[7] = 100 μM Cmpd. 1, scored after 7 days
[8] = 250 μM Cmpd. 1, scored after 7 days
[9] = 500 μM Cmpd. 1, scored after 7 days

Row | Molecule | brown coloring compared with SEQ ID NO: 2, in words [2] | brown pigment formation [2, 5] | brown pigment formation [2, 6] | brown pigment formation [2, 7] | brown pigment formation [2, 8] | brown pigment formation [2, 9] | further results
1 | B1 |  |  |  |  |  |  | character of inhibition by HPPD inhibitor herbicides (time-course) ([1]; different HPPD inhibitor herbicide chemical classes): slow and tight binding inhibitor; brown pigmentation, in words ([2]; 25 μM Cmpd. 1): do not produce any brown pigmentation; brown pigmentation in the presence of the HPPD inhibitor, in words ([3]; Cmpd. 1 1000 μM, 96 hours): did not produce a substantial brown pigmentation
2 | B2 | stronger brown coloring |  |  |  |  |  | 
3 | B3 |  |  |  |  |  |  | Residual activity ([1]; kapp in presence of 50 μM Cmpd. 1, normalised to kapp without inhibitor, low substrate concentration): 53%; Residual turnover ([1]; total change in signal in presence of 50 μM Cmpd. 1, normalised to that without inhibitor, low substrate concentration): 87%; Control BCF OD440nm ([3]; brown color formation in absence of Cmpd. 1, culture supernatant after 96 hours, 5 mM HPP): 1.83; Residual BCF OD440nm [%] ([3]; brown color formation with Cmpd. 1 (1000 μM) relative to without, after 96 hours): 47%
4 | B4 | stronger brown coloring |  |  |  |  |  | 
5 | B5 |  | +++ | +++ | +++ | ++ | ++ | leaf damage score, Interquartile range ([4]; 75th minus 25th percentile): 15.0; leaf damage score, 25th percentile ([4]; scale 0 (no damage) to 100 (complete bleaching)): 5.0; leaf damage score, 75th percentile ([4]; scale 0-100): 20.0; leaf damage score, 90th percentile ([4]; scale 0-100): 72.5; leaf damage score, Median ([4]; scale 0-100): 15.0
6 | B6 | stronger brown coloring |  |  |  |  |  | 
7 | B7 |  | 0 | 0 | 0 | 0 | 0 | 
8 | B8 |  | ++ | ++ | ++ | + | 0 | 

— US10597674B2, “HPPD variants and methods of use” (BASF Agricultural Solutions Seed, US LLC, priority 2015, dated 2020)
